From US20190071480A1 (Biogen, published 2019)
Values belong to the binder of their own block, whether it stands above or below them. Bridges are numbered along the chain shown (N, C = ends).

Columns and labels:
[1] = target: T1, extracellular domain of activin receptor type IIB (ActRIIBecd), biotinylated (Homo sapiens (Human), UniProt Q13705 27-117, amino-biotinylated with amine-PEG3-Biotin); assay: BIAcore SPR, biotinylated ActRIIBecd on chip; SD ±24.42 nM
T1 construct: immobilised on a streptavidin-coated sensor chip; also called biotinylated ActRIIBecd; extracellular domain of ActRIIB
T1 sequence: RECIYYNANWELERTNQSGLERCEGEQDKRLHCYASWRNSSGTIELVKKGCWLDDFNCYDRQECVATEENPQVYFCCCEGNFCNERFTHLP
Procedure: (§1) Biosensor experiments. In one embodiment, experiments were performed on a BIAcore™ T100/T200 instrument (Pharmacia Biosensor AB) in the multichannel mode (serial flow path involving flow cells 1+2+3+4). Flow rate was 10 μl/min; temperature was 25° C.; and data were recorded at 2.5 points/s. All four segments of a sensor chip CMS were coated with streptavidin (Sigma) to a density of 2000 pg/mm² (2000 resonance units) by the aminocoupling procedure. ActRIIBecd (10 mg) and amine-PEG3-Biotin (10 mg, Pierce, Rockford, Ill.) were dissolved in 200 μl H₂O and 10 mg NaCNBH₃ was added to prepare biotinylated ActRIIBecd. The reaction mixture was heated at 70° C. for 24 h, after that a further 10 mg NaCNBH₃ was added and the reaction was heated at 70° C. for another 24 h. After cooling to room temperature, the mixture was desalted with the spin column (3,000 molecular weight cut off (MWCO)). […] Sensograms were recorded during flow of the analyte (the ActRIIBecd-associated polypeptides (i.e., domains) as previously described) first through flow cell 1 (control) then through flow cell 2 (biotinylated ActRIIBecd). […] The sensograms obtained at 1.11, 3.33, 10, 30, and 90 nM analyte were evaluated for equilibrium binding, association rate, and dissociation rate by using the programs supplied with the instrument (BIA evaluation 2.1; Software Handbook. 1995; Pharmacia Biosensor AB).

[2] = target: T1, extracellular domain of activin …; assay: BIAcore SPR, biotinylated ActRIIBecd on chip; SD ±12.79 nM
Procedure: as §1

[3] = target: T1, extracellular domain of activin …; assay: BIAcore SPR as Example 5 (method not restated); SD ±1.12 nM
Procedure: as §1

[4] = target: T1, extracellular domain of activin …; assay: Mean KD column of Table 5; method not restated (BIAcore as Example 5); species also listed in Table 4
Summary of the method: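 SPR at 25° C. and 10 μl/min: analyte at 1.11-90 nM (five concentrations, glycine buffer pH 4.5) passed over a control cell, then over streptavidin-captured biotinylated ActRIIBecd at 50-250 RU. Kinetic and equilibrium constants came from control-subtracted sensorgrams.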

[5] = target: T1, extracellular domain of activin …; assay: BIAcore SPR as Example 5 (method not restated); SD ±0.96 nM
Procedure: as §1

[6] = target: T1, extracellular domain of activin …; assay: BIAcore SPR as Example 5 (method not restated); SD ±1.03 nM
Procedure: as §1

[7] = target: T1, extracellular domain of activin …; assay: BIAcore SPR as Example 5 (method not restated); SD ±1.32 nM
Procedure: as §1

[8] = target: T1, extracellular domain of activin …; assay: BIAcore SPR as Example 5 (method not restated); SD ±2.09 nM
Procedure: as §1

[9] = target: T1, extracellular domain of activin …; assay: BIAcore SPR as Example 5 (method not restated); SD ±2.88 nM
Procedure: as §1

[10] = target: T1, extracellular domain of activin …; assay: BIAcore SPR as Example 5 (method not restated); SD ±1.99 nM
Procedure: as §1

[11] = target: T1, extracellular domain of activin …; assay: Mean KD column of Table 5; differs from Table 4 (22.31)
Procedure: as §1

[12] = target: T1, extracellular domain of activin …; assay: BIAcore SPR as Example 5 (method not restated); SD ±2.31 nM
Procedure: as §1

[13] = target: T1, extracellular domain of activin …; assay: BIAcore SPR as Example 5 (method not restated); SD ±2.39 nM
Procedure: as §1

[14] = target: T1, extracellular domain of activin …; assay: BIAcore SPR as Example 5 (method not restated); SD ±1.65 nM
Procedure: as §1

[15] = target: T1, extracellular domain of activin …; assay: BIAcore SPR as Example 5 (method not restated); SD ±2.05 nM
Procedure: as §1

[16] = target: T1, extracellular domain of activin …; assay: BIAcore SPR as Example 5 (method not restated); SD ±3.22 nM
Procedure: as §1

[17] = target: T1, extracellular domain of activin …; assay: BIAcore SPR as Example 5 (method not restated); SD ±2.14 nM
Procedure: as §1

[18] = target: T1, extracellular domain of activin …; assay: BIAcore SPR as Example 5 (method not restated); SD ±3.01 nM
Procedure: as §1

[19] = target: T1, extracellular domain of activin …; assay: BIAcore SPR as Example 5 (method not restated); SD ±3.30 nM
Procedure: as §1

[20] = target: T1, extracellular domain of activin …; assay: BIAcore SPR as Example 5 (method not restated); SD ±1.27 nM
Procedure: as §1

Kd [1]: 58.4 nM
Binder: AQAKHKQYKRLKSSCKRHPLY [Clone No. 12 domain (ActRIIBecd-associated polypeptide)]

Kd [2]: 38.3 nM
Binder: VDFKDVGWNDHAVAPPGYHAFYCHGECPFPLADHLNSDNHAIVQTKVNSV [Clone No. 14 domain (ActRIIBecd-associated polypeptide)]

Kd [3]: 6.56 nM | Kd [4]: 6.56 nM
B1: SEQ ID NO: 260, cysteine pairs C15-C80^a, C44-C112^a, C48-C114^a, C79-C79^b (designed binder)
chain: AQAKHKQRKRLKSSCKRHPLYVDFSDVGWNDWIVAPPGYHAFYCHGECPFPLADHLNSTNHAIVQTLVNSVNSKIPKACCVPTELSAISMLYLDENEKVVLKNYQDMVVEGCGCR
modifications: disulfides C15-C80 (intra), C44-C112 (intra), C48-C114 (intra), C79-C79 (inter)
notes: homodimer by intermolecular disulfide

Kd [5]: 6.89 nM | Kd [4]: 6.89 nM
B2: SEQ ID NO: 260, cysteine pairs C80-C114^b, C79-C112^b, C44-C48^a (designed binder)
chain: B1 chain
modifications: disulfides C80-C114 (inter), C79-C112 (inter), C44-C48 (intra)
notes: as for B1

Kd [6]: 7.64 nM | Kd [4]: 7.64 nM
B3: SEQ ID NO: 260, cysteine pairs C15-C15^b, C79-C114^a, C80-C112^a, C44-C48^a (designed binder)
chain: B1 chain
modifications: disulfides C15-C15 (inter), C79-C114 (intra), C80-C112 (intra), C44-C48 (intra)
notes: as for B1

Kd [7]: 7.21 nM | Kd [4]: 7.21 nM
B4: SEQ ID NO: 268, cysteine pairs C23-C27^a, C65-C65^b, C79-C112^a, C80-C114^a (designed binder)
chain: VDFSDVGWNDWIVAPPGYHAFYCHGECPFPLADHLNSTNHAIVQTLVNSVAQAKHKQRKRLKSSCKRHPLYNSKIPKACCVPTELSAISMLYLDENEKVVLKNYQDMVVEGCGCR
modifications: disulfides C23-C27 (intra), C65-C65 (inter), C79-C112 (intra), C80-C114 (intra)
notes: as for B1

Kd [8]: 17.8 nM | Kd [4]: 17.8 nM
B5: SEQ ID NO: 242, cysteine pairs C15-C15^b, C29-C62^a, C30-C64^a (designed binder)
chain: GQAKRKGYKRLKSSCKRHPLYNSKDPKACCVPTELSAPSPLYLDENEKPVLKNYQDMVVHGCGCR
modifications: disulfide 29-62, 30-64; also: homodimer via intermolecular C15-C15 disulfide
notes: as for B1

Kd [9]: 48.9 nM | Kd [4]: 48.9 nM
B6: SEQ ID NO: 224, cysteine pairs C15-C44^a (designed binder)
chain: GQAKRKGYKRLKSSCKRHPLYVDFKDVGWNDHAVAPPGYHAFYCHGECPFPLADHLNSDNHAIVQTKVNSV
modifications: disulfides C15-C44 (intra)

Kd [10]: 22.3 nM | Kd [11]: 21.5 nM
B7: SEQ ID NO: 224, cysteine pairs C44-C48^a (designed binder)
chain: B6 chain
modifications: disulfides C44-C48 (intra)

Kd [12]: 17.9 nM | Kd [4]: 17.9 nM
B8: SEQ ID NO: 230, cysteine pairs C23-C27^a (designed binder)
chain: VDFKDVGWNDHAVAPPGYHAFYCHGECPFPLADHLNSDNHAIVQTKVNSVGQAKRKGYKRLKSSCKRHPLY
modifications: disulfides C23-C27 (intra)

Kd [13]: 19.1 nM | Kd [4]: 19.1 nM
B9: SEQ ID NO: 254, cysteine pairs C23-C27^a, C58-C93^a, C59-C91^a (designed binder)
chain: VDFKDVGWNDHAVAPPGYHAFYCHGECPFPLADHLNSDNHAIVQTKVNSVNSKDPKACCVPTELSAPSPLYLDENEKPVLKNYQDMVVHGCGCR
modifications: disulfides C23-C27 (intra), C58-C93 (intra), C59-C91 (intra)

Kd [14]: 18.7 nM | Kd [4]: 18.7 nM
B10: SEQ ID NO: 254, cysteine pairs C23-C27^a, C58-C91^b, C59-C93^b (designed binder)
chain: B9 chain
modifications: disulfides C23-C27 (intra), C58-C91 (inter), C59-C93 (inter)
notes: as for B1

Kd [15]: 44.4 nM | Kd [4]: 44.4 nM
B11: SEQ ID NO: 254, cysteine pairs C23-C58^a (designed binder)
chain: B9 chain
modifications: disulfides C23-C58 (intra)

Kd [16]: 47.8 nM | Kd [4]: 47.8 nM
B12: SEQ ID NO: 248, cysteine pairs C41-C43^a (designed binder)
chain: NSKDPKACCVPTELSAPSPLYLDENEKPVLKNYQDMVVHGCGCRVDFKDVGWNDHAVAPPGYHAFYCHGECPFPLADHLNSDNHAIVQTKVNSV
modifications: disulfides C41-C43 (intra)

Kd [17]: 20 nM | Kd [4]: 20 nM
B13: SEQ ID NO: 248, cysteine pairs C67-C71^a, C8-C43^a, C9-C41^a (designed binder)
chain: B12 chain
modifications: disulfides C67-C71 (intra), C8-C43 (intra), C9-C41 (intra)

Kd [18]: 19.2 nM | Kd [4]: 19.2 nM
B14: SEQ ID NO: 248, cysteine pairs C67-C71^a, C8-C43^b, C9-C41^b (designed binder)
chain: B12 chain
modifications: disulfides C67-C71 (intra), C8-C43 (inter), C9-C41 (inter)
notes: as for B1

Kd [19]: 49.5 nM | Kd [4]: 49.5 nM
B15: SEQ ID NO: 236, cysteine pairs C41-C59^a (designed binder)
chain: NSKDPKACCVPTELSAPSPLYLDENEKPVLKNYQDMVVHGCGCRGQAKRKGYKRLKSSCKRHPLY
modifications: disulfide 41-59

Kd [20]: 17.1 nM | Kd [4]: 17.1 nM
B16: SEQ ID NO: 236, cysteine pairs C59-C59^b, C8-C43^a, C9-C41^a (designed binder)
chain: B15 chain
modifications: disulfide 9-41, 8-43; also: homodimer via intermolecular C59-C59 disulfide
notes: as for B1
